Source: article PMC10411877

Assays:
GST-MAC3A [1] = target: T1, GST-MAC3A (Arabidopsis thaliana (Col), UniProt Q94BR4 1-523); experiment: competition FLISA
T1 sequence: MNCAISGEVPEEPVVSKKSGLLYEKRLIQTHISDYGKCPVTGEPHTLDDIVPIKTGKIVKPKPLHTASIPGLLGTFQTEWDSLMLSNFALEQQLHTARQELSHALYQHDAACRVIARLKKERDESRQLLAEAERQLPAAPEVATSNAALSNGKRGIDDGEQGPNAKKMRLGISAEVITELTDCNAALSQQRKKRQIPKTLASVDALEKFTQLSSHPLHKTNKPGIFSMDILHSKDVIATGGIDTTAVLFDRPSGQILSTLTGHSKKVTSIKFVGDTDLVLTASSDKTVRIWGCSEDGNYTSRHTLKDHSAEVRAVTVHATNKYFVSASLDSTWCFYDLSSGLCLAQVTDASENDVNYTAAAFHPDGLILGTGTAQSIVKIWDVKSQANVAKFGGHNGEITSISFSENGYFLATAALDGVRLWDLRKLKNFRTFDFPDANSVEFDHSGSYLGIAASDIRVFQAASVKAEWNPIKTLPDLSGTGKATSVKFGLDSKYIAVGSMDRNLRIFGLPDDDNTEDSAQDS

GST-MAC3A [2] = target: T1, GST-MAC3A; experiment: FLISA
GST-MAC3A [3] = target: T1, GST-MAC3A; experiment: competition FLISA; remark: listed apart in the source

B1: cold pIAA19 (dsDNA)
DNA 1: ATCTGTTCCCTTAACCACCTTGT
DNA 2: ACAAGGTGGTTAAGGGAACAGAT
B1: binds (GST-MAC3A [1]).

B2: pYUC8biotin (dsDNA)
DNA 1: CCTCTCCACGTGGCTTCCATTC
DNA 2: GAATGGAAGCCACGTGGAGAGG
B2: binds (GST-MAC3A [2]).

B3: cold pYUC8 (dsDNA)
DNA 1: CCTCTCCACGTGGCTTCCATTC
DNA 2: GAATGGAAGCCACGTGGAGAGG
B3: binds (GST-MAC3A [3]).

B4: pIAA19biotin (dsDNA)
DNA 1: AATGACTCCACGTGTCGATATTG
DNA 2: CAATATCGACACGTGGAGTCATT
B4: binds (GST-MAC3A [2]).
